# Results reported in patent US20260374857 (published 2026).
# Where two headings read alike, the source gives them in different places.
# T1: GnRH Bio-peptide 1 (not fully specified)
# T1 chain: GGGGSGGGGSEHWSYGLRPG
# T2: GnRH Bio-peptide 2 (not fully specified)
# T2 chain: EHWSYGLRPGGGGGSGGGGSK
# Legend:
# Experiment in all cases: ELISA
# GnRH Bio-peptide 1 [1] = target: T1, GnRH Bio-peptide 1
# GnRH Bio-peptide 1 [2] = target: T1, GnRH Bio-peptide 1
# GnRH Bio-peptide 2 = target: T2, GnRH Bio-peptide 2
# GnRH Bio-peptide 1 [3] = target: T1, GnRH Bio-peptide 1
# GnRH Bio-peptide 1 [4] = target: T1, GnRH Bio-peptide 1
Binder,EC50 (GnRH Bio-peptide 1 [2]),EC50 (GnRH Bio-peptide 1 [4]),also measured
"Clone 1 Variant 5 (antibody, V domains shown) VH: QVQLVESGGGLVQAGGSVRLSCTASGRTFNNYVLGWFRQTPGKEREFVAAIRGTGSTTHADSVKGRFTISRDNAKNTVYLQMNSLKPEDTAVYYCAADRTYYPGALRPQYWGQGTQVTVSS",–,–,EC50 (GnRH Bio-peptide 1 [1]): 0.94 nM
"Clone 1 Ala scanning 1 (antibody, V domains shown) VH: QVQLVESGGGLVQAGGSVRLSCTASGRTFNNYVLGWFRQTPGKEREFVAAIRGTGSTTHADSVKGRFTISRDNAKNTVYLQMNSLKPEDTAVYYCAAADAYYPGNLRPQYWGQGTQVTVSS",509 nM,–,–
"01Tm4 (antibody, V domains shown) VH: DVQLVESGGGLVQPGGSLRLSCAASGRTFSNYVLGWFRQTPGKEREFVAAIRGTGSTTHADSVKGRFTISRDNAKNTVYLQMNSLKPEDTAVYYCAADDAYYPGNLRPQYWGQGTQVTVSS",–,–,EC50 (GnRH Bio-peptide 2): 0.32 nM; EC50 (GnRH Bio-peptide 1 [3]): 0.32 nM
"Clone 1 Ala scanning 5 (antibody, V domains shown) VH: QVQLVESGGGLVQAGGSVRLSCTASGRTFNNYVLGWFRQTPGKEREFVAAIRGTGSTTHADSVKGRFTISRDNAKNTVYLQMNSLKPEDTAVYYCAADDAYYAGNLRPQYWGQGTQVTVSS",16.9 nM,–,–
"Clone 1 Ala scanning 6 (antibody, V domains shown) VH: QVQLVESGGGLVQAGGSVRLSCTASGRTFNNYVLGWFRQTPGKEREFVAAIRGTGSTTHADSVKGRFTISRDNAKNTVYLQMNSLKPEDTAVYYCAADDAYYPANLRPQYWGQGTQVTVSS",26.2 nM,–,–
"Clone 1 Ala scanning 9 (antibody, V domains shown) VH: QVQLVESGGGLVQAGGSVRLSCTASGRTFNNYVLGWFRQTPGKEREFVAAIRGTGSTTHADSVKGRFTISRDNAKNTVYLQMNSLKPEDTAVYYCAADDAYYPGNLAPQYWGQGTQVTVSS",4.2 nM,–,–
"Clone 1 Ala scanning 11 (antibody, V domains shown) VH: QVQLVESGGGLVQAGGSVRLSCTASGRTFNNYVLGWFRQTPGKEREFVAAIRGTGSTTHADSVKGRFTISRDNAKNTVYLQMNSLKPEDTAVYYCAADDAYYPGNLRPAYWGQGTQVTVSS",11.9 nM,–,–
"Clone 1 Variant 1 (antibody, V domains shown) VH: QVQLVESGGGLVQAGGSVRLSCTASGRTFNNYVLGWFRQTPGKEREFVAAIRGTGSTTHADSVKGRFTISRDNAKNTVYLQMNSLKPEDTAVYYCAADDAYYPGNLRPHYWGQGTQVTVSS",–,–,EC50 (GnRH Bio-peptide 1 [1]): 0.39 nM
"01Tm2 (antibody, V domains shown) VH: DVQLVESGGGLVQPGGSLRLSCAASGRTFQNYVLGWFRQTPGKEREFVAAIRGTGSTTHADSVKGRFTISRDNAKNTVYLQMNSLKPEDTAVYYCAADDAYYPGNLRPQYWGQGTQVTVSS",–,–,EC50 (GnRH Bio-peptide 2): 0.32 nM; EC50 (GnRH Bio-peptide 1 [3]): 0.32 nM
"Clone 1 Ala scanning 8 (antibody, V domains shown) VH: QVQLVESGGGLVQAGGSVRLSCTASGRTFNNYVLGWFRQTPGKEREFVAAIRGTGSTTHADSVKGRFTISRDNAKNTVYLQMNSLKPEDTAVYYCAADDAYYPGNARPQYWGQGTQVTVSS",4 nM,–,–
"01Tm3 (antibody, V domains shown) VH: DVQLVESGGGLVQPGGSLRLSCAASGRTFNAYVLGWFRQTPGKEREFVAAIRGTGSTTHADSVKGRFTISRDNAKNTVYLQMNSLKPEDTAVYYCAADDAYYPGNLRPQYWGQGTQVTVSS",–,–,EC50 (GnRH Bio-peptide 2): 0.33 nM; EC50 (GnRH Bio-peptide 1 [3]): 0.4 nM
"Clone 1 Ala scanning 10 (antibody, V domains shown) VH: QVQLVESGGGLVQAGGSVRLSCTASGRTFNNYVLGWFRQTPGKEREFVAAIRGTGSTTHADSVKGRFTISRDNAKNTVYLQMNSLKPEDTAVYYCAADDAYYPGNLRAQYWGQGTQVTVSS",65.7 nM,–,–
"Clone 1 Ala scanning 7 (antibody, V domains shown) VH: QVQLVESGGGLVQAGGSVRLSCTASGRTFNNYVLGWFRQTPGKEREFVAAIRGTGSTTHADSVKGRFTISRDNAKNTVYLQMNSLKPEDTAVYYCAADDAYYPGALRPQYWGQGTQVTVSS",4.3 nM,–,–
"Clone 1 Variant 3 (antibody, V domains shown) VH: QVQLVESGGGLVQAGGSVRLSCTASGRTFNNYVLGWFRQTPGKEREFVAAIRGTGSTTHADSVKGRFTISRDNAKNTVYLQMNSLKPEDTAVYYCAADDAYYSGNLRPHYWGQGTQVTVSS",–,–,EC50 (GnRH Bio-peptide 1 [1]): 1.19 nM
"Clone 1 Ala scanning 3 (antibody, V domains shown) VH: QVQLVESGGGLVQAGGSVRLSCTASGRTFNNYVLGWFRQTPGKEREFVAAIRGTGSTTHADSVKGRFTISRDNAKNTVYLQMNSLKPEDTAVYYCAADDAAYPGNLRPQYWGQGTQVTVSS",> 1000 nM,–,–
"Clone 1 Variant 4 (antibody, V domains shown) VH: QVQLVESGGGLVQAGGSVRLSCTASGRTFNNYVLGWFRQTPGKEREFVAAIRGTGSTTHADSVKGRFTISRDNAKNTVYLQMNSLKPEDTAVYYCAADETYYPGNLRPHYWGQGTQVTVSS",–,–,EC50 (GnRH Bio-peptide 1 [1]): 0.96 nM
"Clone 1 Ala scanning 4 (antibody, V domains shown) VH: QVQLVESGGGLVQAGGSVRLSCTASGRTFNNYVLGWFRQTPGKEREFVAAIRGTGSTTHADSVKGRFTISRDNAKNTVYLQMNSLKPEDTAVYYCAADDAYAPGNLRPQYWGQGTQVTVSS",152 nM,–,–
"Clone 1 Variant 2 (antibody, V domains shown) VH: QVQLVESGGGLVQAGGSVRLSCTASGRTFNNYVLGWFRQTPGKEREFVAAIRGTGSTTHADSVKGRFTISRDNAKNTVYLQMNSLKPEDTAVYYCAADRAYYPGNLRPHYWGQGTQVTVSS",–,–,EC50 (GnRH Bio-peptide 1 [1]): 0.5 nM
"01Tm1 (antibody, V domains shown) VH: DVQLVESGGGLVQPGGSLRLSCAASGRTFNNYVLGWFRQTPGKEREFVAAIRGTGSTTHADSVKGRFTISRDNAKNTVYLQMNSLKPEDTAVYYCAADDAYYPGNLRPQYWGQGTQVTVSS",–,–,EC50 (GnRH Bio-peptide 2): 0.33 nM; EC50 (GnRH Bio-peptide 1 [3]): 0.34 nM
"Clone 1 Ala scanning 2 (antibody, V domains shown) VH: QVQLVESGGGLVQAGGSVRLSCTASGRTFNNYVLGWFRQTPGKEREFVAAIRGTGSTTHADSVKGRFTISRDNAKNTVYLQMNSLKPEDTAVYYCAADAAYYPGNLRPQYWGQGTQVTVSS",19.8 nM,–,–
"Clone 9 Ala scanning 2 (antibody, V domains shown) VH: EVQLVESGGGLVQSGGSLGLSCAASGRTFSGYAMGWFRQAPGKEREFVAAIRWSGGSTSYADSVKGRFTISRDNAKNTVYLQMNSLKPEDTAVYYCAADAGPSGSYYYPDYWGQGTQVTVSS",–,29.9 nM,–

# Now from value to binder, other results behind:
EC50 (GnRH Bio-peptide 1 [2]),EC50 (GnRH Bio-peptide 1 [4]),Binder,also measured
–,375 nM,"Clone 9 Ala scanning 11 (antibody, V domains shown) VH: EVQLVESGGGLVQSGGSLGLSCAASGRTFSGYAMGWFRQAPGKEREFVAAIRWSGGSTSYADSVKGRFTISRDNAKNTVYLQMNSLKPEDTAVYYCAADRGPSGSYYYADYWGQGTQVTVSS",–
–,49.5 nM,"Clone 9 Ala scanning 5 (antibody, V domains shown) VH: EVQLVESGGGLVQSGGSLGLSCAASGRTFSGYAMGWFRQAPGKEREFVAAIRWSGGSTSYADSVKGRFTISRDNAKNTVYLQMNSLKPEDTAVYYCAADRGPAGSYYYPDYWGQGTQVTVSS",–
–,61.2 nM,"Clone 9 Ala scanning 10 (antibody, V domains shown) VH: EVQLVESGGGLVQSGGSLGLSCAASGRTFSGYAMGWFRQAPGKEREFVAAIRWSGGSTSYADSVKGRFTISRDNAKNTVYLQMNSLKPEDTAVYYCAADRGPSGSYYAPDYWGQGTQVTVSS",–
–,365 nM,"Clone 9 Ala scanning 12 (antibody, V domains shown) VH: EVQLVESGGGLVQSGGSLGLSCAASGRTFSGYAMGWFRQAPGKEREFVAAIRWSGGSTSYADSVKGRFTISRDNAKNTVYLQMNSLKPEDTAVYYCAADRGPSGSYYYPAYWGQGTQVTVSS",–
–,307 nM,"Clone 9 Ala scanning 3 (antibody, V domains shown) VH: EVQLVESGGGLVQSGGSLGLSCAASGRTFSGYAMGWFRQAPGKEREFVAAIRWSGGSTSYADSVKGRFTISRDNAKNTVYLQMNSLKPEDTAVYYCAADRAPSGSYYYPDYWGQGTQVTVSS",–
–,524 nM,"Clone 9 Ala scanning 6 (antibody, V domains shown) VH: EVQLVESGGGLVQSGGSLGLSCAASGRTFSGYAMGWFRQAPGKEREFVAAIRWSGGSTSYADSVKGRFTISRDNAKNTVYLQMNSLKPEDTAVYYCAADRGPSASYYYPDYWGQGTQVTVSS",–
–,51.3 nM,"Clone 9 Ala scanning 4 (antibody, V domains shown) VH: EVQLVESGGGLVQSGGSLGLSCAASGRTFSGYAMGWFRQAPGKEREFVAAIRWSGGSTSYADSVKGRFTISRDNAKNTVYLQMNSLKPEDTAVYYCAADRGASGSYYYPDYWGQGTQVTVSS",–
–,15.6 nM,"Clone 9 Ala scanning 7 (antibody, V domains shown) VH: EVQLVESGGGLVQSGGSLGLSCAASGRTFSGYAMGWFRQAPGKEREFVAAIRWSGGSTSYADSVKGRFTISRDNAKNTVYLQMNSLKPEDTAVYYCAADRGPSGAYYYPDYWGQGTQVTVSS",–
–,554 nM,"Clone 9 Ala scanning 8 (antibody, V domains shown) VH: EVQLVESGGGLVQSGGSLGLSCAASGRTFSGYAMGWFRQAPGKEREFVAAIRWSGGSTSYADSVKGRFTISRDNAKNTVYLQMNSLKPEDTAVYYCAADRGPSGSAYYPDYWGQGTQVTVSS",–
–,56.4 nM,"Clone 9 Ala scanning 9 (antibody, V domains shown) VH: EVQLVESGGGLVQSGGSLGLSCAASGRTFSGYAMGWFRQAPGKEREFVAAIRWSGGSTSYADSVKGRFTISRDNAKNTVYLQMNSLKPEDTAVYYCAADRGPSGSYAYPDYWGQGTQVTVSS",–
